Data as given in PMC2275666 (The EMBO Journal, 2008).
Positions count from the first letter of the chain named.

How the values were obtained:
Experiment in all cases: pull-down
6H–hTFIIEα D393A = target: T1, 6H–hTFIIEα D393A (human, UniProt P29083 1-439, D393A)
T1 sequence: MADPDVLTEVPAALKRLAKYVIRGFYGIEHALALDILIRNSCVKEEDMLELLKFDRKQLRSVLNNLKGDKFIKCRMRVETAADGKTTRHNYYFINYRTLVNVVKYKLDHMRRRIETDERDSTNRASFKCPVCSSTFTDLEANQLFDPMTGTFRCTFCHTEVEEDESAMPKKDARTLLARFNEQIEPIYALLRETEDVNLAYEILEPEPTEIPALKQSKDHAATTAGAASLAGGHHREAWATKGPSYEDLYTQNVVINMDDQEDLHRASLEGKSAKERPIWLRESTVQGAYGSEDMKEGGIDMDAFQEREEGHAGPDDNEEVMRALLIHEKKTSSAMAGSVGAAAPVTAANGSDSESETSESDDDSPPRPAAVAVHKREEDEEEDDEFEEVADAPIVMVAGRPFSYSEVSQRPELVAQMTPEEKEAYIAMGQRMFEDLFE

[1] = target: T2, 6H–hTFIIEα wild type (full-length hTFIIEα) (human, UniProt P29083 1-439)
T2 sequence: T1 sequence with A393D

6H–hTFIIEα F387A = target: T3, 6H–hTFIIEα F387A (human, UniProt P29083 1-439, F387A)
T3 sequence: T1 sequence with F387A, A393D

6H–hTFIIEα F387E = target: T4, 6H–hTFIIEα F387E (human, UniProt P29083 1-439, F387E)
T4 sequence: T1 sequence with F387E, A393D

6H–hTFIIEα V390K = target: T5, 6H–hTFIIEα V390K (human, UniProt P29083 1-439, V390K)
T5 sequence: T1 sequence with V390K, A393D

Measured: binding result

B1: GST-tagged hTFIIEβ (natural protein)
chain: MDPSLLRERELFKKRALSTPVVEKRSASSESSSSSSKKKKTKVEHGGSSGSKQNSDHSNGSFNLKALSGSSGYKFGVLAKIVNYMKTRHQRGDTHPLTLDEILDETQHLDIGLKQKQWLMTEALVNNPKIEVIDGKYAFKPKYNVRDKKALLRLLDQHDQRGLGGILLEDIEEALPNSQKAVKALGDQILFVNRPDKKKILFFNDKSCQFSVDEEFQKLWRSVTVDSMDEEKIEEYLKRQGISSMQESGPKKVAPIQRRKKPASQKKRRFKTHNEHLAGVLKDYSDITSSK
binds: all assays above
